Here are results for one molecule from paper PMC9445877, “Blockade of TMPRSS2-mediated priming of SARS-CoV-2 by lactoferricin” (Frontiers in Immunology, 2022).

For one data set, the target named is T1, TMPRSS2 (Homo sapiens, UniProt O15393).
T1 construct: TMPRSS2 (25 nM; recombinant protein produced in mammalian cells; #MBS1193731, MyBioSource, San Diego, CA); purchased MyBioSource, San Diego, CA #MBS1193731; host or cells: mammalian cells
The experiment in a line: In vitro proteolysis assay, TMPRSS2, fluorogenic substrate Boc-Gln-Ala-Arg-AMC. It counts as biochemical. As to the method: (§1) Figure 1 Effect of LF and the LF-derived peptides pLF1-pLF3 on the activity of serine proteases. Proteolytic activities of purified TMPRSS2 (A), plasmin (B), elastase (C), and trypsin (D) were measured with or without peptides pLF1, pLF2, pLF3, LF or the control peptide pCTR at 37°C in Tris-HCl buffer using the fluorogenic substrate Boc-Gln-Ala-Arg-AMC. The reaction was monitored using an ELISA reader for the indicated time intervals.
(§2) The proteolytic activities of plasmin (10 nM; from human plasma; #10602361001, Roche Diagnostics GmbH, Mannheim, Germany), trypsin (10 nM; from bovine pancreas; #T1005, Sigma-Aldrich, St. Louis, MO), elastase (20 nM; from porcine pancreas; #E1250, Sigma-Aldrich) and TMPRSS2 (25 nM; recombinant protein produced in mammalian cells; #MBS1193731, MyBioSource, San Diego, CA) were measured in a Nunc black fluorescence-based cell assay plate (Sigma-Aldrich) in Tris-HCl buffer (20 mM, pH 8.0, 150 mM NaCl). […] The reaction was measured using an ELISA plate reader (Synergy H1 BioTek microplate reader, Winooski, Vermont, U.S., or TECAN GENios, GMI, USA) under the excitation wavelength of 380 nm and the emission wavelength of 460 nm at the indicated time points.

A further data set concerns the target T2, plasmin (Homo sapiens, UniProt P00747).
T2 construct: purchased Roche Diagnostics GmbH, Mannheim, Germany #10602361001; host or cells: human plasma
The experiment in a line: In vitro proteolysis assay, plasmin. It counts as biochemical. The settings on record: 37°C. The method, then:
as §1
as §2, with “points. […]” for “points.”

The next data set has as its system elastase. The experiment in a line: In vitro proteolysis assay, elastase. It counts as biochemical, porcine. The conditions noted are these: elastase 20 nM; 37°C, Tris-HCl buffer, Boc-Gln-Ala-Arg-AMC. As to the method:
as §1, §2

Data set [1] concerns SARS-CoV-2 infection, Vero cells. It counts as cell-based, SARS-CoV-2 (African green monkey cells). The conditions noted are these: 40 µg/mL, pre-incubation 40-60 min, mean of three independent experiments.
Data set [2] has as its system SARS-CoV-2 infection, Calu-3 cells. It counts as cell-based, SARS-CoV-2 (human cells). The settings on record: concentration not given, pre-incubation approx. 1 h, four independent experiments.
Data set [3] deals with SARS-CoV-2. It counts as cell-based. The conditions noted are these: summary statement.
For another data set, the system named is COVID-19. The conditions noted are these: supplementary LF treatment; cited from earlier work. An excerpt: (§3) The human glycoprotein LF is synthetized by exocrine glands and is present at high concentrations in secretory body fluids, particularly in milk, but also within inflammatory granules of neutrophils. […] This effect was mainly attributed to its immunomodulatory properties ([26]).

The test system of data set [4] is SARS-CoV-2. The conditions noted are these: cited from earlier work.
From the text: as §3

The next data set relates to plasminogen. The conditions noted are these: cited from earlier work. An excerpt:
Since structures of the catalytic domains of serine proteases display a high level of identity ([10]), we have tested the inhibitory effect of LF and three LF-derived synthetic peptides against other serine proteases, including TMPRSS2, elastase and trypsin, in addition to plasmin. […] In contrast, uPA-independent Plg conversion by the bacterial enzyme streptokinase was not affected by LF ([11]). […] Similarly, only pLF1 but neith ...

In a further data set the test system is SARS-CoV-1. The settings on record: cited from earlier work.
The conditions of data set [5]: cited from earlier work.
Data set [6] has as its system SARS-CoV-2. The settings on record: cited from earlier work. This is another data set of the same source.
The conditions of data set [7]: cited from earlier work. This is another data set of the same source.

“Also recorded” adds a separate entry of the source.

T1 sequence (O15393 256-492 limits assumed): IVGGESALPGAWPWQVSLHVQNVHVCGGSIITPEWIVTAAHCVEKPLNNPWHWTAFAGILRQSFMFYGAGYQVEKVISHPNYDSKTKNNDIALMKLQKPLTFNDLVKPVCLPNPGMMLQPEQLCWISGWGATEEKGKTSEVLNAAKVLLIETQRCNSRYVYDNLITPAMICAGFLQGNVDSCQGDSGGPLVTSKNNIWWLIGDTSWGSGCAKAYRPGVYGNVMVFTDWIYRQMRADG
T1 sequence (O15393 106-255 limits assumed): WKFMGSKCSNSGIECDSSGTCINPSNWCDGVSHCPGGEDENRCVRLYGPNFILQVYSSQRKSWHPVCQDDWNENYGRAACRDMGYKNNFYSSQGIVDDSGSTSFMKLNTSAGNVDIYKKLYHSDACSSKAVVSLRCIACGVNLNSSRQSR
T2 sequence (P00747 581-810 limits assumed): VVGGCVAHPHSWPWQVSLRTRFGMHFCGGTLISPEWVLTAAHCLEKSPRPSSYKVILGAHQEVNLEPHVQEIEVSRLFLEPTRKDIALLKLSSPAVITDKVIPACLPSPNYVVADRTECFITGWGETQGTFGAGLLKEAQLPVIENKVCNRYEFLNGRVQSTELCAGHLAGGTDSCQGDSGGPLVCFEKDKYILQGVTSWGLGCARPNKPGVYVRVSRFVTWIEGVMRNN
T2 sequence (P00747 97-580 limits assumed): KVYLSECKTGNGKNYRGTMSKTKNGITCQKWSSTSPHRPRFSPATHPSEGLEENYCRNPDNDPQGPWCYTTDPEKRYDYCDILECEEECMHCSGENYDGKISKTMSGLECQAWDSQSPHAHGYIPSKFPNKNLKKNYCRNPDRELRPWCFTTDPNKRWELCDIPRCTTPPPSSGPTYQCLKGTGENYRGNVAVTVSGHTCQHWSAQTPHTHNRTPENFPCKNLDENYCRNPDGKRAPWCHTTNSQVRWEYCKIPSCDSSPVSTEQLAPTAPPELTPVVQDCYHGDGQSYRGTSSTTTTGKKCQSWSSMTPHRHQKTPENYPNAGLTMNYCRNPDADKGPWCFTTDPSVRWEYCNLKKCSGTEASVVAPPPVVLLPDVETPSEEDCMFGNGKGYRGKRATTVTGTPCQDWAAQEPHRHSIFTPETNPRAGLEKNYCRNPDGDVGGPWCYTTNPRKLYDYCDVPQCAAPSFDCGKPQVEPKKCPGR

B1: LF: human milk glycoprotein lactoferrin; recombinant human LF (L1294, Sigma-Aldrich) (protein, UniProt P02788 1-710, looked up)
chain: MKLVFLVLLFLGALGLCLAGRRRSVQWCAVSQPEATKCFQWQRNMRKVRGPPVSCIKRDSPIQCIQAIAENRADAVTLDGGFIYEAGLAPYKLRPVAAEVYGTERQPRTHYYAVAVVKKGGSFQLNELQGLKSCHTGLRRTAGWNVPIGTLRPFLNWTGPPEPIEAAVARFFSASCVPGADKGQFPNLCRLCAGTGENKCAFSSQEPYFSYSGAFKCLRDGAGDVAFIRESTVFEDLSDEAERDEYELLCPDNTRKPVDKFKDCHLARVPSHAVVARSVNGKEDAIWNLLRQAQEKFGKDKSPKFQLFGSPSGQKDLLFKDSAIGFSRVPPRIDSGLYLGSGYFTAIQNLRKSEEEVAARRARVVWCAVGEQELRKCNQWSGLSEGSVTCSSASTTEDCIALVLKGEADAMSLDGGYVYTAGKCGLVPVLAENYKSQQSSDPDPNCVDRPVEGYLAVAVVRRSDTSLTWNSVKGKKSCHTAVDRTAGWNIPMGLLFNQTGSCKFDEYFSQSCAPGSDPRSNLCALCIGDEQGENKCVPNSNERYYGYTGAFRCLAENAGDVAFVKDVTVLQNTDGNNNEAWAKDLKLADFALLCLDGKRKPVTEARSCHLAMAPNHAVVSRMDKVERLKQVLLHQQAKFGRNGSDCPDKFCLFQSETKNLLFNDNTECLARLHGKTTYEKYLGPQYVAGITNLKKCSTSPLLEACEFLRK
modifications: full-length
On to B1, for which the “inhibition of proteolytic activity of TMPRSS2 (in words)” value in the data set with TMPRSS2 (37°C, Tris-HCl buffer, Boc-Gln-Ala-Arg-AMC) was “not able to block TMPRSS2 activity; also recorded: neither full-length LF nor pCTR inhibited; also recorded: did not block TMPRSS2 activity; also recorded: neither full-length LF nor other tested peptides derived from LF, nor the control peptide pCTR, significantly reduced”. Further, the “dose dependence of inhibition of TMPRSS2 (in words)” value with TMPRSS2 (Figure 1A inset) is reported as “no dose-dependent inhibition; also recorded: not by LF”. For the same molecule, in the data set with plasmin (Figure 1B inset: S-2251 in PBS), the “dose dependence of inhibition of active plasmin (in words)” value was “no dose-dependent inhibition; also recorded: not by LF”. Also, the “inhibition of proteolytic activity of plasmin (in words)” value with plasmin (plasmin 10 nM, Tris-HCl buffer, Boc-Gln-Ala-Arg-AMC) is listed as “neither full-length LF nor a control peptide (pCTR), was able to inhibit; also recorded: neither full-length LF nor other tested peptides derived from LF, nor the control peptide pCTR, significantly reduced”. Also, the “inhibition of proteolytic activity of elastase (in words)” value in the data set with elastase is on record as “neither full-length LF nor other tested peptides derived from LF, nor the control peptide pCTR, significantly reduced”. In data set [1], the “inhibition of SARS-CoV-2 infection, Vero cells, 40 µg/mL” value is listed as “≈ 38%”. Besides, the “inhibition of SARS-CoV-2 infection, Calu-3 cells” value in data set [2] was 60-70%. In addition, in the data set on SARS-CoV-2 [3], the “SARS-CoV-2 infection of permissive cells (in words)” value was “prevented SARS-CoV-2 infection”. The “COVID-19 symptoms in clinical study (in words)” value in the data set on COVID-19 is reported as “significantly reduced COVID-19 symptoms”. Besides, in the data set on SARS-CoV-2 [4], the “SARS-CoV-2 infection in vitro (in words)” value is “found to inhibit SARS-CoV-2 infection in vitro”. Further, in the data set with plasminogen, the “binding to plasminogen (in words)” value was “binds to Plg via its highly cationic N-terminal region; also recorded: bound to Plg via its highly cationic N-terminal region” and the “inhibition of plasminogen conversion to plasmin (in words)” value is reported as “able to inhibit activation of Plg through hindering the action of urokinase-type plasminogen activator (uPA); also recorded: blocked Plg conversion to the active serine protease plasmin”. For the same molecule, the “uPA-independent plasminogen conversion by streptokinase (in words)” value in the data set with plasminogen (streptokinase as activator) is “not affected”. The “SARS-CoV-1 infection (in words)” value in the data set with SARS-CoV-1 is on record as “inhibited the SARS-CoV-1 infection”. In addition, in data set [5], the “binding to heparin and HSPGs (in words)” value is “LF binding to both heparin and HSPGs was observed”. Further, in the data set with SARS-CoV-2 [6], the “interferon responses (in words)” value is given as “enhancement of interferon responses”, the “iron homeostasis (in words)” value is “maintenance of iron homeostasis” and the “viral replication (in words)” value is “inhibition of viral replication”. In data set [7] (in vivo, po), the “clinical benefit, oral (in words)” value was “major clinical benefit in human, particularly neonatal medicine”. Moreover, the “safety, oral (in words)” value in [7] (orally administered) was “considered safe and without adverse effects”.
